Test results published in the supplement of paper PMC10567573.

B1: SPOPL (parent)
chain: PDDKLTLFCEVSVVQDSVNISGHT
B2: NCK2 (parent)
chain: YTGPSSSGRFAGREWYYGNVTRHQ

Variants of: B1
Experiment: protein stability index of a GFP-peptide fusion (GPS, HEK-293T) (PSI 1-6); higher = more stable
Conditions: c terminus: a fixed tail appended
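Also: lentivirally expressed fusions sorted by FACS into six bins by GFP to DsRed ratio, PSI derived from sequencing read proportions per bin multiplied by bin number.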

Protein stability index of substitutions, site by site:
G22: E 3.28, F 3.28, H 1.66, K 2.1, N 1.98, P 2.07, Q 2.97, S 2.05, T 3.74
H23: A 2, C 2, D 3.06, E 3.21, G 2.01, I 2.41, K 2.21, L 1.69, N 2.6, P 2.26, Q 2.3, R 2.71, S 2.18, T 2.44, V 2.03, W 5.02
T24: A 1.54, D 2.46, E 3.45, F 1.74, G 1.51, H 2.4, I 2.27, K 3.16, M 2.39, N 2.97, P 3.77, Q 2.06, S 2.38, W 3.64

Variants of: B2
Experiment: as above
Conditions: c terminus: a fixed tail appended

Protein stability index: each site, then its substitutions
Y1: A 3.25, C 2.01, D 3.3, E 3.28, F 1.47, G 2.46, H 2.48, I 2.08, K 2.75, L 2.3, M 2.57, N 2.73, P 3.8, Q 2.96, R 2.55, S 2.12, T 3.08, V 2.93, W 2.66
T2: A 2.62, C 2.06, D 2.63, E 2.82, F 2.04, G 2.44, H 1.88, I 1.79, K 2.27, L 1.7, M 2.62, N 2.19, P 3.3, Q 1.5, R 1.67, S 1.37, V 2.32, W 2.35, Y 2.67
G3: A 2.23, C 1.83, D 2.38, E 2.34, F 2.25, H 1.71, I 2.07, K 2.08, L 1.81, M 1.88, N 2.17, P 1.56, Q 1.78, R 2.17, S 2.04, T 1.54, V 2.25, W 2.99, Y 2.13
P4: A 2.13, C 3.83, D 1.56, E 2.31, F 1.82, G 1.99, H 2.48, I 1.03, K 2.4, L 1.64, M 2.37, N 2.32, Q 1.26, R 3.61, S 1.79, T 1.9, V 1.36, W 1.71, Y 3.08
S5: A 2.6, C 1.31, D 1.96, E 1.62, F 2.77, G 2.46, H 1.92, I 2.13, K 1.7, L 2.56, M 2.96, N 1.95, Q 1.97, R 2.03, T 1.86, V 1.4, W 3.56, Y 3.23
S6: A 2.09, C 1.69, D 1.91, E 1.49, F 3.15, G 1.54, H 2.15, I 1.96, K 2.35, L 1.77, M 2.35, N 1.78, P 1.66, Q 2.22, R 1.46, T 1.93, V 1.58, Y 2.13
S7: A 1.71, C 3.63, D 1.59, E 2.32, F 1.59, G 1.82, H 1.85, K 2.08, L 2.11, M 1.58, N 1.47, P 2.18, Q 2, R 1.82, T 2.68, V 1.46, Y 2.02
G8: A 1.25, C 2.32, D 2.65, E 2.32, F 2.04, H 1.51, I 1.59, K 1.82, L 3.02, M 1.68, N 1.71, P 1.66, Q 1.64, R 2.3, S 2.22, T 1.87, V 1.48, Y 2.22
R9: A 1.56, C 2.09, D 1.81, E 2.5, F 4.5, G 2.17, H 1.45, I 3.13, K 1.46, M 3.36, N 1.69, P 2.14, Q 1.81, S 1.38, T 1.44, V 1.85, Y 1.73
F10: A 2.14, C 1.44, D 1.93, E 2.95, G 2.35, H 2, I 1.89, K 2.25, L 1.44, M 2.1, N 2.13, P 2.42, Q 1.84, R 1.66, S 2.11, T 2.2, V 2.13, W 3.07, Y 1.64
A11: D 1.95, E 2.04, F 4.19, G 2.44, H 2, I 1.55, K 1.32, L 2.02, M 1.48, N 2.34, P 1.25, Q 2.21, R 1.85, S 2.2, T 2.3, V 1.62, W 3.03, Y 2.2
G12: A 1.73, C 2.81, D 2.44, E 1.49, F 2.45, H 2.26, I 2.66, K 2.32, L 2.25, M 1.75, N 3.14, P 1.42, Q 2.09, R 1.98, S 1.52, T 2.17, V 1.84, W 1.9, Y 2.1
R13: A 1.61, C 3.48, D 2.09, E 2, F 2.33, G 2.21, H 2.75, I 2.64, K 2.02, L 1.7, M 1.63, N 1.91, P 1.97, Q 2.44, S 2.03, T 1.81, V 2.44, W 2.01, Y 1.94
E14: A 1.57, C 3.32, D 1.4, F 1.95, G 1.69, H 2.69, I 1.58, K 2.03, L 1.68, M 1.64, N 1.78, P 1.87, Q 2.09, R 2.58, S 1.67, V 2.56, W 1.92, Y 1.3
W15: A 2.49, C 2.19, D 2.83, E 2.52, F 2.19, G 2.82, H 2.66, I 1.71, K 2.22, L 1.77, M 2.18, N 2.73, P 2.36, Q 2.36, R 2.35, S 1.5, T 2.28, V 2.36, Y 2.23
Y16: A 2.24, C 2.03, D 2.27, E 2.26, F 2.26, G 1.81, H 2.03, I 2.19, K 2.06, L 1.59, M 1.61, N 2.13, Q 2.37, R 1.98, S 2.33, T 2.45, V 1.5, W 2.29
Y17: A 2.11
